*1 amine or outer side, *2 acyl side, *3 side chain or, on linkers, in order; H or OH if unused. Where no end group is shown, it is not given here. [ ]: non-standard residue; d: D form. Asp(NHCH2Ph) = Asp side-chain benzylamide, O=C(C[C@H](N[*:1])C(=O)[*:2])NCc1ccccc1; Cys(CH2-Ph) = S-benzyl-Cys, O=C([C@H](CSCc1ccccc1)N[*:1])[*:2]; Phe(3-CH2NH2) = O=C([C@H](Cc1cccc(CN[*:3])c1)N[*:1])[*:2]; d(pS) = N[C@H](COP(=O)(O)O)C(=O)O; pS = N[C@@H](COP(=O)(O)O)C(=O)O; Trp(3-Me) = 3-methyltryptophan; βAla = NCCC(=O)O
Columns and labels:
Assay type in all cases: cell-based
PCSK9-WT protein [1] = target: T1, PCSK9-WT protein (Homo sapiens, UniProt Q8NBP7); experiment: Cellular diI-LDL uptake in HuH7 cells with PCSK9-WT; conditions: HuH7, 1.0 μg/ml PCSK9-WT, 100 uM peptide (FIG. 2)
T1 construct: V5
T1 sequence (Q8NBP7 153-692): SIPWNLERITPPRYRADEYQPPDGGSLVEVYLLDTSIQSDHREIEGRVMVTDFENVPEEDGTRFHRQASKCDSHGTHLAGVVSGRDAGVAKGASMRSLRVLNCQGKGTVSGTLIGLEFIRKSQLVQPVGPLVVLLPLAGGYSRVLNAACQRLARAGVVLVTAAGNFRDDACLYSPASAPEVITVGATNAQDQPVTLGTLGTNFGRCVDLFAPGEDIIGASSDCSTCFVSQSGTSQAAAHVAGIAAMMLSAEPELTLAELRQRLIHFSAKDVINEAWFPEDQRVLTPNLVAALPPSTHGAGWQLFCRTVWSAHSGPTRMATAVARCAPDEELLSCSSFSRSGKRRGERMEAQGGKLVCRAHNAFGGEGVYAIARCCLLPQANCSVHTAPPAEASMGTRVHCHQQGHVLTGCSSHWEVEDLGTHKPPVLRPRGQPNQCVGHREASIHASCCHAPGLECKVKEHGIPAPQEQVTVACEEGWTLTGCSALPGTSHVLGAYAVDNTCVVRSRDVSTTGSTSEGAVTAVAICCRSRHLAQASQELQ
Experimental: HuH7 cells were incubated in a 96-well plate for a total of 20 h in the absence (Cnt) or presence of 1.0 μg/ml PCSK9-WT protein alone (WT) or mixed with 100 uM of various SRX peptides. After 16 h, dil-LDL (5 ug/ml) was added to the incubation mixtures. After 4 h, fluorescence was measured (Ex: 520 nm/Em: 575 nm; cutoff: 550 nm). Dil-LDL uptake is calculated as RFU corrected for the number of cells.
(§1) LDL internalization was measured by uptake of a fluorescently tagged LDL molecule (diI-LDL) in the absence of exogenous PCSK9 (Cnt), in the presence of exogenous PCSK9 (normal PCSK9=WT, D374Y mutant PCSK9=DY), or in the presence of PCSK9 and a tested peptide (indicated as SRX##, or SRX if a single peptide results is shown in a graph).
(§2) Cells, such as HepG2, HuH7, FL83B or a cell line transfected with a short-hairpin PCSK9 knockdown sequence such as HepG2/shPCSK9, HuH7/shPCSK9, FL83B/shPCSK9, were seeded at 2×10^4 cells/well in a 96-well plate and cultured at 37 degC in RPMI+10% FBS. After approximately 24 hours, the cell media was aspirated off and replaced with RPMI+3-5 mg/mL LPDS (Lipoprotein Deficient Serum, Millipore) media for further experimentation. Benjannet et al., “Effects of the prosegment and pH on the activity of PCSK9: evidence for additional processing events” J Biol Chem. 285(52): 40965-40978 (2010).
(§3) Peptide activity was assessed by culturing cells with: i) no SRX peptide/PCSK9 protein complex (control, Cnt); ii) PCSK9 protein; and iii) SRX peptide/PCSK9 complex. Various permutations of these experimental conditions were also used, including: i) the addition of wild type PCSK9 (WT); ii) a mutant PCSK9 (e.g., D374Y mutant PCSK9, DY); iii) various SRX peptides and/or PCSK9 at the same concentration and/or combinations; iv) various SRX peptides and/or PCSK9 at different concentrations and/or combinations; v) the use of different cells, as mentioned above, with or without a transfected short-hairpin sequence; vi) a pre-incubation of the PCSK9 and SRX peptide (e.g., 1, hour, 2 hours, 3 hours, 4 hours etc.); vii) various temperatures including, but not limited to, body temperature (e.g., 37° C.), supraphysiologic temperature (e.g., 39° C.); and viii) with/without agitation (e.g., shaker or gentle periodic vortexing).
(§4) Cells were cultured using one of the combinations of conditions described in the preceding paragraph for 16 hours. After 16 hours, a quantity of diI-LDL (Low density lipoprotein coupled with 1,1′-dioctadecyl-3,3,3′,3′-tetramethylindocarbocyanine perchlorate) needed to bring the media concentration to 5 ug/mL of diI-LDL was added to the culture well and cells continued to be cultured under these new conditions for 4 additional hours. At the end of the 4-hour incubation period (20 total hours of cell culture), the cellular uptake was halted with the addition of 4% formaldehyde in 10 uM Hoechst 33342 in a solvent such as deionized autoclaved water or PBS, and specimens were incubated at 20° C. for 20 minutes. Cell specimens were rinsed twice with PBS and then fluorescence measured with excitation at 360 nm and emission detected at 460 nm to measure DNA content. Cell specimens were then be incubated with a 0.1% SDS in a 0.1 N NaOH solution while being shaken for 10 minutes. Fluorescence of the diI-LDL in the specimens were quantified using excitation at 530 nm and resulting emission at 580 nm.
Fluorescence measurements of diI-LDLR were normalized to estimated cell numbers, determined from the Hoechst fluorescence. Data was analyzed for the different experimental conditions and reported as percentage relative fluorescence units (RFU) of the Cnt specimen. Percent inhibition was calculated as the difference in RFU of a peptide exposed specimen to the RFU of PCSK9-no peptide, divided by the RFU difference in PCSK9-no peptide to RFU of Cnt specimen, also expressed as [(SRX:RFU)−(PCSK9-no peptide:RFU)]/[(PCSK9-no peptide:RFU)−(Cnt:RFU)]×100.

PCSK9-D374Y protein = PCSK9-D374Y protein (Homo sapiens, UniProt Q8NBP7, D374Y); experiment: Cellular diI-LDL uptake in HuH7 cells with PCSK9-D374Y
Sequence of PCSK9-D374Y protein (Q8NBP7 153-692 D374Y): as the sequence (Q8NBP7 153-692) above, with D222Y counted along it
Experimental: HuH7 cells were incubated in a 96-well plate for a total of 20 h in the absence (Cnt) or presence of 0.5 μg/ml PCSK9-D374Y protein alone (DY) or mixed with 100 uM of various SRX peptides. After 16 h, dil-LDL (5 ug/ml) was added to the incubation mixtures. After 4 h, fluorescence was measured (Ex: 520 nm/Em: 575 nm; cutoff: 550 nm). Dil-LDL uptake is calculated as RFU corrected for the number of cells.
HuH7 cells were incubated in a 96-well plate for a total of 20 h in the absence (Cnt) or presence of 0.5 μg/ml PCSK9 GOF-D374Y protein alone (DY) or mixed with increasing concentrations of various SRX peptides. After 16 h, dil-LDL (5 ug/ml) was added to the incubation mixtures. After 4 h, fluorescence was measured (Ex: 520 nm/Em: 575 nm; cutoff: 550 nm). Dil-LDL uptake is calculated as RFU corrected for the number of cells.
as §1, §2, §3, §4
Fluorescence measurements of diI-LDLR were normalized to estimated cell numbers, determined from the Hoechst fluorescence. […]

PCSK9-WT protein [2] = target: T1, PCSK9-WT protein; experiment: FACS analysis of cell surface LDLR in HuH7 cells with PCSK9-WT; conditions: HuH7 cells, FACS, exogenous WT PCSK9 plus peptide (FIG. 1, 100 μM)
Experimental: HuH7 cells were incubated for 18 h in the absence (Cnt) or presence of 0.75 μg/ml PCSK9-WT protein alone (WT) or mixed with 100 μM of various SRX peptides. The level of LDLR at the cell surface was measured by FACS using anti human LDLR Ab and a suitable secondary Ab labeled with Alexa 647. Cell surface LDLR is reported relative to Cnt. % inhibition of activity was calculated as [SRX−WT]/[Cnt−WT]×100%.
See, FIG. 1. In that experiment, the LDLR levels of a hepatocyte culture model (HuH7 cells) were measured by fluorescence activated cell sorting (FACS) in accordance with Example III. Cell surface LDLR is reported as a percentage of Basal levels of LDLR, indicated by the Cnt_Amm.Bic, Cnt_Ac.Acid, and Cnt bars in the top graph. See, FIG. 1 (top panel). LDLR levels in the presence of exogenous PCSK9 is indicated as WT_Amm.Bic, WT-Ac.Acid, and WT, and Exogenous PCSK9 in combination with a tested peptide is indicated as SRX##. The measured LDLR levels are reported as % versus basal controls (Cnt) of the respective group. […] This was further shown a percent inhibition (% inhibition was calculated as [SRX−WT]/[Cnt−WT]×100%) where positive modulation (increase) of LDLR level is reported as positive % inhibition, and negative modulation (decrease) of LDLR level is reported as negative % inhibition. See, FIG. 1 (bottom panel).
Benjannet et al., “Effects of the prosegment and pH on the activity of PCSK9: evidence for additional processing events” J Biol Chem. 285(52): 40965-40978 (2010). The cells were then washed 3× with solution A (calcium/magnesium-free Dulbecco's PBS (Invitrogen) containing 0.5% bovine serum albumin (Sigma) and 1 g/liter glucose)). The cells were then incubated for 10 min at room temperature with 1× Versene solution (Invitrogen) followed by the addition of 5 ml of solution A. The cells were then incubated for 40 min in solution A containing a human LDLR mAb-C7 (1:100; Santa Cruz Biotechnology). Following washes, the cells were then incubated for 20 min in solution A containing a secondary antibody (Alexa Fluor 647 donkey anti-mouse antibody; 1:250; Molecular Probes).
Following suspension in PBS containing 0.2% of propidium iodide, the cells were analyzed by FACS for both propidium iodide (dead cells) and LDLR in live cells with Alexa Fluor 647 using the FACS BD LSR (BD Biosciences).

[3] = HuH7, 0.5 μg/ml PCSK9-D374Y, 100 uM peptide (FIG. 3)
[4] = HuH7, 0.5 μg/ml PCSK9 GOF-D374Y, increasing concentrations of peptide (FIG. 4)

| Substance | LDL internalization (dil-LDL % uptake vs Cnt) (PCSK9-WT protein [1]) | LDL internalization (dil-LDL % uptake vs Cnt) (PCSK9-D374Y protein; [3]) | LDL internalization (dil-LDL % uptake vs Cnt) (PCSK9-D374Y protein; [4]) | modulation of LDLR cell surface level (PCSK9-WT protein [2]) |
| --- | --- | --- | --- | --- |
| LDLFFS [Compound 9] | negatively modulated (decreased) | positively modulated (increased) | positively modulated (increased) |  |
| Phe(4-Ph)-Ala-Ser(p)-morpholine [Compound 16] | negatively modulated (decreased) | negatively modulated (decreased) |  | negatively modulate (decrease) |
| Thr-Leu-Asp(NHCH2Ph)-Thr-Trp-Ser-Ser-Ser(p) (TL[Asp(NHCH2Ph)]TWSS[pS]) [Compound 4] | negatively modulated (decreased) |  |  |  |
| Thr-Leu-Cys(CH2-Ph)-Thr-Trp(3-Me)-Ser-Ser-Ser(p) (TL[Cys(CH2-Ph)]T[Trp(3-Me)]SS[pS]) [Compound 7] | negatively modulated (decreased) | positively modulated (increased) |  |  |
| Thr-Leu-Cys(CH2-Ph)-Thr-Trp-Ser-Ser-Ser(p) [Compound 3] | positively modulated (increased) | positively modulated (increased) | positively modulated (increased) | positively modulate (increase) |
| Thr-Leu-Thr-Trp-Ser-Ser-Ser(p) (TLTWSS[pS]) [Compound 15] | negatively modulated (decreased) | negatively modulated (decreased) |  |  |
| VLELYW [Compound 8] | negatively modulated (decreased) |  |  |  |
| β-Ala-Phe(3-CH2NH2)-Val-D-Ser(p)-Phe-Trp ([βAla][Phe(3-CH2NH2)]V[d(pS)]FW) [Compound 2] | positively modulated (increased) | positively modulated (increased) | positively modulated (increased) | positively modulate (increase) |
